Publication PMC10330758 (DNA repair, 2023)

Molecular target: N-terminally his-tagged human DHX9 (human, UniProt Q08211 1-1270)
Assay: pull-down

N-terminally his-tagged human DHX9, sequence (Q08211 whole entry): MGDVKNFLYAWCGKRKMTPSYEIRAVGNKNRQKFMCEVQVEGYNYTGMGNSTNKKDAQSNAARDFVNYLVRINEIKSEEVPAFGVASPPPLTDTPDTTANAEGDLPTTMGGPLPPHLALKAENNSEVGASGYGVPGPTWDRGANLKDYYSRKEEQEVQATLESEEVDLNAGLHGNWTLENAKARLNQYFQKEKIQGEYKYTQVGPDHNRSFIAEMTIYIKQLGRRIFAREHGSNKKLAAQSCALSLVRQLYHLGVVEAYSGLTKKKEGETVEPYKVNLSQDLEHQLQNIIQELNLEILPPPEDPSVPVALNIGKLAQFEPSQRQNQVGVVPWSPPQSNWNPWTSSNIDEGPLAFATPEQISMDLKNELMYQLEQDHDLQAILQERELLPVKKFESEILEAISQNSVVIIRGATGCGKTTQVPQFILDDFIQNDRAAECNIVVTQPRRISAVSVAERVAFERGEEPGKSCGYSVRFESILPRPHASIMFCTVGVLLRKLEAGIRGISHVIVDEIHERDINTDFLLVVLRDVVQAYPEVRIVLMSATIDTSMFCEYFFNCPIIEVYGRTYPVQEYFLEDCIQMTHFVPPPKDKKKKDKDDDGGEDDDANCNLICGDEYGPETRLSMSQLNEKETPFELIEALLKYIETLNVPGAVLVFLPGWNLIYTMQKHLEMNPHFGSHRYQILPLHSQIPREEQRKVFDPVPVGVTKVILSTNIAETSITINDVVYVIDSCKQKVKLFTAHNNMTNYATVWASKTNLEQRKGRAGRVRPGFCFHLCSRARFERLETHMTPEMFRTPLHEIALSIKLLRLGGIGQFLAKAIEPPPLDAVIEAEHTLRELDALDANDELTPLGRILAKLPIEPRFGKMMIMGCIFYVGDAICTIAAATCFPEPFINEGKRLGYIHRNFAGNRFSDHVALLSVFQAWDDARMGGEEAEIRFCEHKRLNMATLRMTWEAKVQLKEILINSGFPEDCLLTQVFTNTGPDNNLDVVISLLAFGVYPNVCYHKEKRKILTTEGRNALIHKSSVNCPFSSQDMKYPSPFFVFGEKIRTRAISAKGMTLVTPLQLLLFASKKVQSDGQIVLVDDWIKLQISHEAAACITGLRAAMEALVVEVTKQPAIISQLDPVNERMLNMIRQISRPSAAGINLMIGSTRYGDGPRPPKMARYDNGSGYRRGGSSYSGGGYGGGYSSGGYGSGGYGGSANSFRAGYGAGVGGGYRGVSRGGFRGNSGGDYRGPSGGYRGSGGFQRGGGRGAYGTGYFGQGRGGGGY

B1: Un-tagged p125 subunit of Pol δ (enzyme, human, UniProt P28340 1-1107, looked up)
chain: MDGKRRPGPGPGVPPKRARGGLWDDDDAPRPSQFEEDLALMEEMEAEHRLQEQEEEELQSVLEGVADGQVPPSAIDPRWLRPTPPALDPQTEPLIFQQLEIDHYVGPAQPVPGGPPPSRGSVPVLRAFGVTDEGFSVCCHIHGFAPYFYTPAPPGFGPEHMGDLQRELNLAISRDSRGGRELTGPAVLAVELCSRESMFGYHGHGPSPFLRITVALPRLVAPARRLLEQGIRVAGLGTPSFAPYEANVDFEIRFMVDTDIVGCNWLELPAGKYALRLKEKATQCQLEADVLWSDVVSHPPEGPWQRIAPLRVLSFDIECAGRKGIFPEPERDPVIQICSLGLRWGEPEPFLRLALTLRPCAPILGAKVQSYEKEEDLLQAWSTFIRIMDPDVITGYNIQNFDLPYLISRAQTLKVQTFPFLGRVAGLCSNIRDSSFQSKQTGRRDTKVVSMVGRVQMDMLQVLLREYKLRSYTLNAVSFHFLGEQKEDVQHSIITDLQNGNDQTRRRLAVYCLKDAYLPLRLLERLMVLVNAVEMARVTGVPLSYLLSRGQQVKVVSQLLRQAMHEGLLMPVVKSEGGEDYTGATVIEPLKGYYDVPIATLDFSSLYPSIMMAHNLCYTTLLRPGTAQKLGLTEDQFIRTPTGDEFVKTSVRKGLLPQILENLLSARKRAKAELAKETDPLRRQVLDGRQLALKVSANSVYGFTGAQVGKLPCLEISQSVTGFGRQMIEKTKQLVESKYTVENGYSTSAKVVYGDTDSVMCRFGVSSVAEAMALGREAADWVSGHFPSPIRLEFEKVYFPYLLISKKRYAGLLFSSRPDAHDRMDCKGLEAVRRDNCPLVANLVTASLRRLLIDRDPEGAVAHAQDVISDLLCNRIDISQLVITKELTRAASDYAGKQAHVELAERMRKRDPGSAPSLGDRVPYVIISAAKGVAAYMKSEDPLFVLEHSLPIDTQYYLEQQLAKPLLRIFEPILGEGRAEAVLLRGDHTRCKTVLTGKVGGLLAFAKRRNCCIGCRTVLSHQGAVCEFCQPRESELYQKEVSHLNALEERFSRLWTQCQRCQGSLHEDVICTSRDCPIFYMRKKVRKDLEDQEQLLRRFGPPGPEAW
B1: binds.
